Experimental findings from PMC2807033 are described below.

This assay addresses RepΔC33 (Rep lacking the C-terminal 33 residues) (E. coli) (UniProt P09980). Put plainly: not stated; apparent KD (equilibrium dissociation constant), Figure S5; the method is not told in the text shown (SPR is the only quantitative binding method that the paper names).

With “E. coli replicative helicase DnaB, purified (from UniProt P0ACB0 1-471) (enzyme)”, the Kd was found to be 1700 nM.
